Reference: ChEMBL document CHEMBL3871290, “3-Cyano-6-(5-methyl-3-pyrazoloamino) pyridines (Part 2): A dual inhibitor of Aurora kinase and tubulin polymerization” (Bioorg Med Chem Lett, 2016)

Key:
Settings in all cases: Homo sapiens
[1] = substrate: Cc1ccc(OCCNc2nc(Nc3cc(C)[nH]n3)cc(C)c2C#N)cn1
Description: Activity at LYN (unknown origin)

[2] = substrate: Cc1ccc(OCCNc2nc(Nc3cc(C)[nH]n3)cc(C)c2C#N)cn1; remark: listed apart in the source
Description: Activity at Aurora 2 kinase (unknown origin)

[3] = substrate: Cc1ccc(OCCNc2nc(Nc3cc(C)[nH]n3)cc(C)c2C#N)cn1; remark: listed apart in the source
Description: Activity at Aurora 1 kinase (unknown origin)

B1: Tyrosine-protein kinase Lyn (Homo sapiens), P07948 (protein)
chain: MGCIKSKGKDSLSDDGVDLKTQPVRNTERTIYVRDPTSNKQQRPVPESQLLPGQRFQTKDPEEQGDIVVALYPYDGIHPDDLSFKKGEKMKVLEEHGEWWKAKSLLTKKEGFIPSNYVAKLNTLETEEWFFKDITRKDAERQLLAPGNSAGAFLIRESETLKGSFSLSVRDFDPVHGDVIKHYKIRSLDNGGYYISPRITFPCISDMIKHYQKQADGLCRRLEKACISPKPQKPWDKDAWEIPRESIKLVKRLGAGQFGEVWMGYYNNSTKVAVKTLKPGTMSVQAFLEEANLMKTLQHDKLVRLYAVVTREEPIYIITEYMAKGSLLDFLKSDEGGKVLLPKLIDFSAQIAEGMAYIERKNYIHRDLRAANVLVSESLMCKIADFGLARVIEDNEYTAREGAKFPIKWTAPEAINFGCFTIKSDVWSFGILLYEIVTYGKIPYPGRTNADVMTALSQGYRMPRVENCPDELYDIMKMCWKEKAEERPTFDYLQSVLDDFYTATEGQYQQQP
Km [1]: 1000 µM

B2: Aurora kinase A (Homo sapiens), O14965 (protein)
chain: MDRSKENCISGPVKATAPVGGPKRVLVTQQFPCQNPLPVNSGQAQRVLCPSNSSQRIPLQAQKLVSSHKPVQNQKQKQLQATSVPHPVSRPLNNTQKSKQPLPSAPENNPEEELASKQKNEESKKRQWALEDFEIGRPLGKGKFGNVYLAREKQSKFILALKVLFKAQLEKAGVEHQLRREVEIQSHLRHPNILRLYGYFHDATRVYLILEYAPLGTVYRELQKLSKFDEQRTATYITELANALSYCHSKRVIHRDIKPENLLLGSAGELKIADFGWSVHAPSSRRTTLCGTLDYLPPEMIEGRMHDEKVDLWSLGVLCYEFLVGKPPFEANTYQETYKRISRVEFTFPDFVTEGARDLISRLLKHNPSQRPMLREVLEHPWITANSSKPSNCQNKESASKQS
Km [2]: 28 µM

B3: Aurora kinase B (Homo sapiens), Q96GD4 (protein)
chain: MAQKENSYPWPYGRQTAPSGLSTLPQRVLRKEPVTPSALVLMSRSNVQPTAAPGQKVMENSSGTPDILTRHFTIDDFEIGRPLGKGKFGNVYLAREKKSHFIVALKVLFKSQIEKEGVEHQLRREIEIQAHLHHPNILRLYNYFYDRRRIYLILEYAPRGELYKELQKSCTFDEQRTATIMEELADALMYCHGKKVIHRDIKPENLLLGLKGELKIADFGWSVHAPSLRRKTMCGTLDYLPPEMIEGRMHNEKVDLWCIGVLCYELLVGNPPFESASHNETYRRIVKVDLKFPASVPMGAQDLISKLLRHNPSERLPLAQVSAHPWVRANSRRVLPPSALQSVA
Km [3]: 30 µM
